Reference: article PMC8642242

Biological target: SARS-CoV-2 stabilized S trimer (HexaPro) (SARS-CoV-2)
Assay: negative-stain EM

Substance “SARS-CoV-2 stabilized S trimer (HexaPro) (domain or fragment)” has a stoichiometry N of 3.
